B1: His-tagged human Sar1A (H79G) [human] / RRFR peptides (first intracellular loop of Fzd6) [mouse] (parent complex)
chain 1: not shown
chain 2: VRRFRYPERPC

Variants of B1 are the subject of the assay. The experiment in a line: peptide pull-down (peptides linked to thiopyridone-Sepharose 6B), immunoblot quantification; n = 3; parent: 1; read off a plot. (A western blot detects proteins with antibodies after separation by electrophoresis.)
In the case of chain 2 R2A, chain 2 R3A, chain 2 R5A, the ratio to parent is roughly 0.08.

(Values after article PMC7335806 (2020).)
